Assay results reported in US20070244108A1.

B1: human hepatic microsomal 11β HSD1 (Homo sapiens) (protein)
chain: MAFMKKYLLPILGLFMAYYYYSANEEFRPEMLQGKKVIVTGASKGIGREMAYHLAKMGAHVVVTARSKETLQKVVSHCLELGAASAHYIAGTMEDMTFAEQFVAQAGKLMGGLDMLILNHITNTSLNLFHDDIHHVRKSMEVNFLSYVVLTVAALPMLKQSNGSIVVVSSLAGKVAYPMVAAYSASKFALDGFFSSIRKEYSVSRVNVSITLCVLGLIDTETAMKAVSGIVHMQAAPKEECALEIIKGGALRQEEVYYDSSLWTTLLIRNPCRKILEFLYSTSYNMDRFINK
B2: Human 11β HSD1 (Homo sapiens) (protein)
chain: B1 chain

Substrate: C[C@]12CCC(=O)C=C1CCC1C2C(=O)C[C@@]2(C)C1CC[C@]2(O)C(=O)CO
Test: cells, lysate or membranes named

Protein	Km (other: 10 μg microsomal protein, 30 min at 37° C., Buffer 1, TLC assay) [µM]	Km (other: RIA detection, 10 μg/well microsomal protein, 30 min, buffer 3, 37.0 °C) [µM]
B1	0.66	–
B2	–	0.7
